# Test results published in patent US20260183393A1, “IMMUNOSUPPRESSANT-RESISTANT MODIFIED ALLOGENEIC MODIFIED IMMUNE CELLS AND METHODS FOR USE THEREOF” (Beam Therapeutics Inc., priority 2023, published 2026).
# Entries after “also recorded” stand apart in the source; their conditions may differ.
# B1: TSBT×1538: guide polynucleotide targeting FKBP1A, SEQ ID NO: 501 (nucleic acid)
# guide: CTCACCGTCTCCTGGGGAGAGTTTTAGAGCTAGAAATAGCAAGTTAAAATAAGGCTAGTCCGTTATCAACTTGAAAAAGTGGCACCGAGTCGGTGCTTTT
# modifications: chemistry not given here
# Experiments:
# FKBP1A polynucleotide = test: Base editing of FKBP1A in primary human T cells, next-generation sequencing; type: cell-based; settings: ABE8.20m mRNA and sgRNA electroporated into activated primary human T cells; NGS
# Description: FIG. 3 provides a bar graph showing maximum A to G and C to T base editing within an FKBP1A polynucleotide achieved using base editor systems containing one of the guide polynucleotides indicated along the x-axis (see Table 1 for nucleotide sequences) and either an adenosine deaminase base editor (ABE) or a cytidine deaminase base editor (CBE), as indicated. The ABE was ABE8.20m and the CBE was rBE4. Primary human T cells were thawed and activated in vitro using an anti-CD3/CD28/CD2 reagent. On day 2 following contacting with the reagent, the T cells were washed and resuspended in P3 Buffer (Lonza) and plated in 96-well electroporation plates containing 2 μg ABE8.20m or rBE4 (CBE) and 2 μg of the indicated guide polynucleotide targeting the FKBP1A (FKBP prolyl isomerase 1A) polynucleotide. Plates were electroporated using a DH-102 setting on a Lonza Nucleofector™ 96-well plate unit. The electroporated cells were incubated for 3 days. […]
# Healthy donor adult human leukopaks were commercially obtained from HemaCare (Charles River). […] Two-days post-activation, T cells were counted, washed with sterile PBS (Gibco) and resuspended in P3 buffer (Lonza) at 10^7 cells mL^−1. […]
# FKBP1A protein = test: Western blot of FKBP1A protein in edited T cells; type: cell-based, human; settings: T cells edited with ABE8.20m and TSBT×1538 sgRNA
# Method: Primary human T cells were activated with anti-CD3/CD28/CD2 reagent. On day 2 following contacting with the reagent, the T cells were contacted with the TSBT×1538 sgRNA and ABE8.20m and subsequently incubated for approximately 5 days. Unedited cells were used as a negative control. Following the approximately 5-day incubation, the cells were harvested and cell-associated protein was extracted to be evaluated in the Western blot analysis. Protein samples from the edited and unedited cells were contacted with a rabbit anti-FKBP1A or mouse anti-GAPDH (control used to normalize protein concentrations) antibodies, followed by staining with secondary anti-rabbit (HRP) and anti-mouse (NIR) antibodies, respectively. Protein was analyzed using the Jess automated Western blot analysis device available from ProteinSimple.
# 19CAR-T cells = test: CAR-T cell proliferation assay; type: cell-based, human; settings: 100 nM rapamycin
# Description: Primary human T cells were activated using an anti-CD3/CD28/CD2 reagent. Two-days after being contacted with the reagent, the T cells were edited using a base editor system containing the guide polynucleotide TSBT×1538 and the base editor ABE8.20m using electroporation, as described above. Following electroporation, both the T cells were transduced with a lentiviral vector encoding an anti-CD19 CAR (19CAR) and allowed to expand in culture for approximately 7 days before being cryopreserved for later analysis. Unedited anti-CD19 CAR-T cells were prepared as a negative control. The 19CAR-T cells were then thawed from cryopreservation and rested overnight before being stimulated using dynabeads coated with recombinant human CD19 protein-coated at a bead-to-cell ratio of 1:1. The T cells were cultured in the presence of 100 nM of the immunosuppressant rapamycin or dimethylsulfoxide (DMSO) as a control for 6 days. The total number of T cells were enumerated using a NucleoCounter NC-200™ automated cell counter.
# Primary human T cells were activated using an anti-CD3/CD28/CD2 reagent. Two days after being contacted with the reagent, the T cells were edited using a base editor system containing the guide polynucleotide TSBT×1538 and the base editor ABE8.20m using the electroporation protocol described above. Both edited and unedited T cells were transduced with a lentiviral vector encoding an anti-CD19 CAR (19CAR) and allowed to expand in culture for approximately 7 days before being cryopreserved for later analysis. Unedited 19CAR-T cells were used as a control. For analysis, the 19CAR-T cells were thawed and rested for 72 hours before labeling using a CellTrace™ Far Red (CTFR) dye. After CTFR labeling, the 19CAR-T cells were stimulated using an Immunocult™ Human CD3/CD28/CD2 universal T cell activator in the presence of 100 nM of the immunosuppressant agent rapamycin or in the presence of DMSO (control) and allowed to incubate for an additional 3 days. Following the three-day incubation, the T cells were analyzed using flow cytometry to measure dilution of CTFR dye as an indicator of cell proliferation.
# The following day, T cells were washed, counted and 1×10^4 cells were seeded in triplicate into a 96-well flat bottom plate alone or with 1×10^4 JeKo-1.GFP^+ tumor cells. […] On day 7, samples were analyzed by flow cytometry and 19CAR-T cells were enumerated using CountBright Counting Beads (Thermo Fisher Scientific) following the manufacturer's protocol.
molecule,measurement,setting,value
B1,mean on-target genomic editing efficiency,FKBP1A polynucleotide,93.7%
same,FKBP1A protein expression,FKBP1A protein,knock-out of FKBP1A protein expression; also recorded: reduced protein expression
same,cell proliferation in response to a universal T cell activator,"19CAR-T cells; 19CAR-T cells edited with ABE8.20m and the guide, 3 days, CTFR dilution",improved cell proliferation
same,proliferation in the presence of rapamycin,"19CAR-T cells; anti-CD19 CAR-T cells edited with ABE8.20m and the guide, CD19-coated dynabeads 1:1, 6 days",improved proliferation
